The record followed here is paper PMC5131612 (Journal of Structural Biology, 2016).

For experiment [1], the target named is T1, His-USP1 (21-785) (human, UniProt O94782 21-785).
T1 sequence (looked up): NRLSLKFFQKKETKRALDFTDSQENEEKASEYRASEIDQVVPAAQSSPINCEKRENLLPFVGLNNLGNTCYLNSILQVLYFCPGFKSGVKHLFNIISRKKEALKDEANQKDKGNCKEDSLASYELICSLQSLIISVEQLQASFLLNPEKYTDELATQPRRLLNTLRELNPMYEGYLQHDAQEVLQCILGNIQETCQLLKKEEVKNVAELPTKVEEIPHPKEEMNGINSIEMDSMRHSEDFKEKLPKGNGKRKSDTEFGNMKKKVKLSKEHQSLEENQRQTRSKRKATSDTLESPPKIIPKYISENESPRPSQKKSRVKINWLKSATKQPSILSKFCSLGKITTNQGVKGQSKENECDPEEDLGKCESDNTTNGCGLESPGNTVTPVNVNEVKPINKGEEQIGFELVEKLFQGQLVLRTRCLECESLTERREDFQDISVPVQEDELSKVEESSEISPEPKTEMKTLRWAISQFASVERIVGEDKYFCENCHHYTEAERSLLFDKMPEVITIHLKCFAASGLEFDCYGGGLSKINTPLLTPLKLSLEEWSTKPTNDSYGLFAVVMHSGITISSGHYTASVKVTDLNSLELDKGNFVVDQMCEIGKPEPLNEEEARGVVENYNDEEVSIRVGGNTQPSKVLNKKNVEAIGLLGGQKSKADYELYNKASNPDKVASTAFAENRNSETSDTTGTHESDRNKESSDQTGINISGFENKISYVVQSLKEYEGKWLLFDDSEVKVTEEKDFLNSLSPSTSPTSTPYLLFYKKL
The experiment is described as follows: SEC-MALS.

Experiment [2] addresses GST-USP12WT (24-370) (human, UniProt O75317 24-370). Briefly: SPR.

Chain of GST-USP12WT (24-370) (O75317 24-370): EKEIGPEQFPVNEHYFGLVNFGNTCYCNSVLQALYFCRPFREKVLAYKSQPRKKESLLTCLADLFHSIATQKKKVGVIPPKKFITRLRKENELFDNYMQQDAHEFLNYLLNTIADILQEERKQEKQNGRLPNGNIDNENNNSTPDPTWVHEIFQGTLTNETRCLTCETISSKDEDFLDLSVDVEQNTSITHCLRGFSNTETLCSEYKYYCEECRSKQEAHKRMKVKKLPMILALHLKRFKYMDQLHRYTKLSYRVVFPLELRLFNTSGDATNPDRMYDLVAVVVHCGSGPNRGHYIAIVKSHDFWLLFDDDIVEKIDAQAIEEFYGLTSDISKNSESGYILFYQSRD

B1: UAF1FL, UAF1 (9-677) (natural protein)
chain: not shown
Take B1: the “stoichiometry N” value in experiment [1] came out at 2 UAF1 per USP1. In addition, the “Kd of the second binding event” value in experiment [2] stood at 325 nM.
